Data set [1] concerns the target T1, Gelsolin (GSN) (Homo sapiens, UniProt P06396 SEQ:28-782). Put plainly: microtiter (ELISA-type) assay, immobilized aptamer, 100 nM gelsolin; selection buffer with 2 mM CaCl2, 5 mM MgCl2; RT. The note with it: tags: tagless; expressed from pET303/CT-His vector in E. coli BL21(DE3); label: biotin.
In data set [2] the target is T1, Gelsolin (GSN). Description: microtiter (ELISA-type) assay, immobilized aptamer 1.56-100 nM, 100 nM gelsolin; 25 mM Tris pH 8, 150 mM NaCl, 2 mM CaCl2, 5 mM MgCl2, 10 mM KCl; RT. The note with it: tags: tagless; expressed from pET303/CT-His vector in E. coli BL21(DE3); label: biotin. A general note: An ELISA detects its analyte on a solid surface through an enzyme-linked reagent.

T1 sequence (P06396 28-782): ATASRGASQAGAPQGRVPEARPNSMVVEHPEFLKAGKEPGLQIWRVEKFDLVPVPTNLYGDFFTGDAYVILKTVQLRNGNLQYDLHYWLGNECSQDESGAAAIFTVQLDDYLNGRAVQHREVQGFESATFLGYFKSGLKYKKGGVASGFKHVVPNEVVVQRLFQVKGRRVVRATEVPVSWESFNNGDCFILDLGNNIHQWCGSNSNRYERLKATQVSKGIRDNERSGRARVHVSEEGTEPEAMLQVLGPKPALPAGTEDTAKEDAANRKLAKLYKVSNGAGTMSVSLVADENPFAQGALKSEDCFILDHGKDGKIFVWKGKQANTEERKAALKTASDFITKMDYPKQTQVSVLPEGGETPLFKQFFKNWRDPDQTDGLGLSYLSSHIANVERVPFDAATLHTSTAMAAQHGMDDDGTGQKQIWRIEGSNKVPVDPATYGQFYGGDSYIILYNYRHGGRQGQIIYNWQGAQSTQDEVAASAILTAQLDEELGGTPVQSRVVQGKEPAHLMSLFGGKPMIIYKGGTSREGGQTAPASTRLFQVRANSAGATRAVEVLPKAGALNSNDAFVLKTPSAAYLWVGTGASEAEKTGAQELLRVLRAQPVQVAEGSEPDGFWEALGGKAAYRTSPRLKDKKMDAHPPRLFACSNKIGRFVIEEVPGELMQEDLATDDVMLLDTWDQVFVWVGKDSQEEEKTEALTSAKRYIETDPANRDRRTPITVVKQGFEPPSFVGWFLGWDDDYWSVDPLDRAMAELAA

B1: L26F (ssDNA)
DNA: TAGGGAAGAGAAGGACATATGATGGGGCACTGGAGGGTGGGGGAGCGGGGGCGGTTGACTAGTACATGACCACTTGA
As usually defined, the Kd is a measure of binding affinity in units of concentration. A low value points to tighter binding. With B1, binding in data set [1] was put at a Kd of 15.3 nM.

B2: L24F (ssDNA)
DNA: TAGGGAAGAGAAGGACATATGATCGGGGGGCGGGTATTGGGGGCCGGGGGGATTGACTAGTACATGACCACTTGA
Molecule B2 gave a Kd in data set [1] of 15.7 nM. This Kd and that of the molecule before are within 1.5-fold of each other.

B3: 10.10R (ssDNA)
DNA: TCAAGTGGTCATGTACTAGTCAAGCACTTTCGCTGCTCGCTGGCGCCGCGCCCATCATATGTCCTTCTCTTCCCTA
Regarding B3, binding in data set [2] was put at a Kd of 7.2 nM.

B4: L16F (ssDNA)
DNA: TAGGGAAGAGAAGGACATATGATAGGGGGATAGGAGGGGGTGGGATTGGGGGATTGACTAGTACATGACCACTTGA
With B4, the affinity in data set [1], expressed as Kd, was 12.7 nM.

For the origin of these results see patent publication US20170260530, “APTAMERS FOR PURIFYING AND QUANTIFYING GELSOLIN AND ITS VARIANTS” (Council of Scientific & Industrial Research, published 2017).
